Measured values taken from article PMC6954729, “Type I fatty acid synthase trapped in the octanoyl‐bound state” (Protein Science : A Publication of the Protein Society, 2020).

Target: the molecule itself
Assay: crystal structure; crystals grown in 0.2 M potassium-sodium tartrate, 25% (w/v) PEG 3350 at 20°C, soaked with octanoyl-CoA for up to 2 min; 2.7 Å; four chains (A-D) in the asymmetric unit

B1: murine KS-MAT didomain (condensing part of murine Type I fatty acid synthase), octanoyl-bound (domain or fragment)
chain: EEVVIAGMSGKLPESENLQEFWANLIGGVDMVTDDDRRWKAGLYGLPKRSGKLKDLSKFDASFFGVHPKQAHTMDPQLRLLLEVSYEAIVDGGINPASLRGTNTGVWVGVSGSEASEALSRDPETLLGYSMVGCQRAMMANRLSFFFDFKGPSIALDTACSSSLLALQNAYQAIRSGECPAALVGGINLLLKPNTSVQFMKLGMLSPDGTCRSFDDSGSGYCRSEAVVAVLLTKKSLARRVYATILNAGTNTDGSKEQGVTFPSGEVQEQLICSLYQPAGLAPESLEYIEAHGTGTKVGDPQELNGITRSLCAFRQAPLLIGSTKSNMGHPEPASGLAALTKVLLSLEHGVWAPNLHFHNPNPEIPALLDGRLQVVDRPLPVRGGNVGINSFGFGGSNVHVILQPNTRQAPAPTAHAALPHLLHASGRTLEAVQDLLEQGRQHSQDLAFVSMLNDIAATPTAAMPFRGYTVLGVEGRVQEVQQVSTNKRPLWFICSGMGTQWRGMGLSLMRLDSFRESILRSDEAVKPLGVKVSDLLLSTDERTFDDIVHAFVSLTAIQIALIDLLTSVGLKPDGIIGHSLGEVACGYADGCLSQREAVLAAYWRGQCIKDAHLPPGSMAAVGLSWEECKQRCPAGVVPACHNSEDTVTISGPQAAVNEFVEQLKQEGVFAKEVRTGGLAFHSYFMEGIAPTLLQALKKVIREPRPRSARWLSTSIPEAQWQSSLARTSSAEYNVNNLVSPVLFQEALWHIPEHAVVLEIAPHALLQAVLKRGVKSSCTIIPLMKRDHKDNLEFFLTNLGKVHLTGINVNPNALFPPVEFPAPRGTPLISPHIKWDHSQTWDVPVAEDFPN
modifications: octanoyl covalently bound to C161 (KS, all four chains of the asymmetric unit); octanoyl covalently bound to S581 (MAT, chain D only)
notes: Type I fatty acid synthase (FAS), murine; condensing part with KS, linker domain (LD) and MAT; residues 1-407 and 824-852 (KS) and 488-806 (MAT) are named in superpositions; Wild type; also called murine FAS KS-MAT didomain; Wildtype soaked with octanoyl-CoA; source: E. coli BL21 Gold (DE3), purified (Ni-NTA, Strep-Tactin, SEC)
B1: binds.
